Experimental data as given in patent US20030203869A1.

B1: HBV Env 335 (HBV env 335-343) CTL epitope peptide … (peptide)
peptide: WLSLLVPFV
modifications: not checked
B2: HIV Env 49 (HIV env 49-58) CTL epitope peptide … (peptide)
peptide: TVYYGVPVWK
modifications: not checked

How the values were obtained:
[1] = biological target: purified HLA-A2.1 molecules (human); test: inhibition of binding of a labeled reference peptide to purified HLA-A2.1; conditions: remark: other sources report otherwise
[2] = biological target: purified HLA-A11 molecules (human); test: inhibition of binding of a labeled reference peptide to purified HLA-A11

Row | Binder | IC50 [1] [nM] | IC50 [2] [nM]
1 | B1 | 5 | –
2 | B2 | – | 4
